Data published in paper PMC11087256.
Like-named read-outs stand apart in the source and are kept apart here.

What was measured:
GST-EphA2 [1] = target: GST-EphA2 (UniProt P29317); assay: ELISA; as the ELISA on GST-EphA2-coated plates, gH/gL or gB incubated in the presence of IFITM1 (concentration of IFITM1 not stated)
GST-EphA2 [2] = target: GST-EphA2 (UniProt P29317); assay: ELISA; 200 ng GST-EphA2 coated on 96-well plates overnight at 4 °C, blocked with 5% BSA in PBS; gradient concentrations of 6×His proteins, 2 h at room temperature; anti-His or anti-GST antibody, HRP secondary, absorbance at 450 nm
GST-EphA2 [3] = target: GST-EphA2 (UniProt P29317); assay: as above; remark: listed apart in the source

Substance | EC50 with IFITM1 (GST-EphA2 [1]) [nM] | EC50 (GST-EphA2 [2]) [nM] | EC50 (GST-EphA2 [3]) [nM]
6×His-gH/gL (from UniProt P03231 19-706; P03212 23-137) (complex) | 75.7 | 33.5 | 32
soluble 6×His-IFITM1 fusion protein (sIFITM1) (from UniProt P13164 1-125) (natural protein) |  | 15.4 | 
